According to the supplement of paper PMC12764529:
± gives the half width of the 95% confidence interval.

Key:
[1] = folding stability dG unfold from chymotrypsin proteolysis; higher = more stable
Method in brief: (§1)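 Mini-proteins designed to be under 80 residues and free of cysteine were carried in a PA-tagged cDNA display construct and digested with trypsin and with chymotrypsin. Each protease was applied at 11 threefold-diluted concentrations, alongside a no-protease condition, before sequencing. K50 came from Bayesian fitting of the sequencing counts, and unfolding free energy was obtained by comparing it with a sequence-predicted unfolded-state K50 and a shared folded-state K50, for each protease separately or for both together. Designs were retained only if their AlphaFold2 dimer inter-PAE exceeded 15.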

[2] = folding stability dG unfold (combined trypsin and chymotrypsin); higher = more stable
Method in brief: as §1

[3] = folding stability dG unfold from trypsin proteolysis; higher = more stable
Method in brief: as §1

Sequence | folding stability dG unfold [1] [kcal/mol] | folding stability dG unfold [2] [kcal/mol] | folding stability dG unfold [3] [kcal/mol]
SAGGSAGGSAGGKKKKVKKKVTITIKLSAEEVAKLLKDLYPEKNIKIEENEDGSLSVTFTSAGGSAGGSAGG [r7_670_TrROS_Hall] | 2.39 ± 0.041 | 2.26 ± 0.11 | 2 ± 0.098
SAGGEIKPGQTVRIRITVYNLETGEEKTIEVEVPAGKTLEEVLAELFDNLSEEERKNLVVRIEIEPVSAGGS [r16_321_TrROS_Hall] | 5.02 ± 0.12 | 4.9 ± 0.26 | 4.38 ± 0.15
SAGGSGQKFEIDRMIHIPLPNGRMLYIMRMKNPIMIMEFNGDNFRPVATVPNDDIPPEIRDLIKKLSAGGSA [r2_133_TrROS] | 2.25 ± 0.11 | 2.27 ± 0.12 | 1.95 ± 0.068
SAGGSAGGSAGGKTYTAEELRSLPPGAKITLADGKVIEVSIEQLEKEIKPGDTVRIERVPSAGGSAGGSAGG [r7_643_TrROS_Hall] | -0.404 ± 0.17 | 0.172 ± 0.09 | 0.542 ± 0.043
SAGGSAGGSAGNSVTILPIPETDKYLVVVSDNSGKFTVFDVDSSDLEDVVKALPSNYTVTSAGGSAGGSAGG [r11_569_TrMRF] | 1.13 ± 0.051 | 1.04 ± 0.048 | 0.881 ± 0.025
SAGGKYGYKIEIEIAIFRIPPGAEVEPERIGNIEIYRIRFPDGNWLIMIRIKVKPMPPPPPEKKDNDDSAGG [r13_804_TrROS] | 4.7 ± 0.23 | 4.22 ± 0.34 | 3.61 ± 0.22
SMILDVPGEQLDEALAEIRAAVAAGAPPVTIRMKLSPEDLKKAKAAFEALGMTVTPLPEPGVWEFTVELRSA [r9_600_JUSTAS] | 3.366 ± 0.017 | 3.27 ± 0.065 | 3.08 ± 0.043
SAGGMPIYARIVLYPPETGKFSELEIEFPEFESPDEVVEAAKEIAEKLGGPIARIEIYDPKTGKPFPDSAGG [r13_771_TrMRF] | 0.281 ± 0.083 | 0.314 ± 0.27 | 0.592 ± 0.094
SAGGVPLLSAELLTTDETGNRTYRLVYYDPSTGKVYEVVVSQPFPTGDFNPFLFTASSLEEALELVTSSAGG [r13_26_TrMRF] | 2.81 ± 0.038 | 2.7 ± 0.038 | 2.61 ± 0.057
SAGGSAGGSAGGFIPEDGHPDETVQLTTSLTLTTSYTLPNGETVTETHTVPVLFTYKVPSAGGSAGGSAGGS [r10_1135_TrMRF] | 1.02 ± 0.071 | 0.797 ± 0.054 | 0.433 ± 0.02
SAGMPAGDFEPVKVEYTIKIPILNEGGGAAAPMPIKVKVEVYRMPNGNLFIKFEIEIPGGNKIEFWFPISAG [r5_580_TrROS] | 4.32 ± 0.13 | 3.99 ± 0.26 | 2.67 ± 0.28
SAGGIVVKVADGSYVRIVVYDPNNPVPRIETFPGGGVDDVIAAIAASPSFPNTVVYVERFDDGKPYPASAGG [r13_914_TrMRF] | 0.664 ± 0.055 | 0.747 ± 0.075 | 0.871 ± 0.043
SAKEPVYLVRIRVEIYKDGKPVKELEIEVEVEEGETLEEVLERLREELEKKGYKIVKVEIEVRKLPPPESAG [r14_979_TrROS_Hall] | 5.04 ± 0.15 | 4.72 ± 0.19 | 3.35 ± 0.13
SAGGMSVTVSTHLSPEELRELVREIVEKNPGLEVKAVEVTDPATGEWRAVPLDEVPADRPVTVRVDLSRSAG [r5_357_JUSTAS] | 0.388 ± 0.12 | 0.495 ± 0.12 | 0.506 ± 0.091
SAVELPPDASITAVTVDPSGSRTVEVEVKTTTAYVYDPATGTTTTVPPGVRTVVTLPADVPVTVSFTSPSAG [r14_385_JUSTAS] | 0.484 ± 0.084 | 0.413 ± 0.085 | 0.252 ± 0.099
SAGGSAGGSNTITVFMKVDDPEDALDEISEEIRDLFPPGIEVEIQPEQNEDKRGWVQVTIEFKSAGGSAGGS [r20_122_TrROS] | 1.15 ± 0.33 | 1.02 ± 0.2 | 1.04 ± 0.063
SASPELRKLAEEAAERLVKELGVEKLEFTFTAPVLRPVYTYDPGGNKTPRLEEEIVTYSVTAVVPPEAASAG [r14_232_TrMRF] | -0.21 ± 0.31 | -0.0957 ± 0.2 | -0.0655 ± 0.14
